# Legend:
# [1] = tested on: human hepatocyte nuclear factor 1α (HNF-1α), His and Xpress-tagged at the N-terminus
# [2] = tested on: T1, human hepatocyte nuclear factor 4α (HNF-4α), His and Xpress-tagged at the N-terminus
# T1 sequence: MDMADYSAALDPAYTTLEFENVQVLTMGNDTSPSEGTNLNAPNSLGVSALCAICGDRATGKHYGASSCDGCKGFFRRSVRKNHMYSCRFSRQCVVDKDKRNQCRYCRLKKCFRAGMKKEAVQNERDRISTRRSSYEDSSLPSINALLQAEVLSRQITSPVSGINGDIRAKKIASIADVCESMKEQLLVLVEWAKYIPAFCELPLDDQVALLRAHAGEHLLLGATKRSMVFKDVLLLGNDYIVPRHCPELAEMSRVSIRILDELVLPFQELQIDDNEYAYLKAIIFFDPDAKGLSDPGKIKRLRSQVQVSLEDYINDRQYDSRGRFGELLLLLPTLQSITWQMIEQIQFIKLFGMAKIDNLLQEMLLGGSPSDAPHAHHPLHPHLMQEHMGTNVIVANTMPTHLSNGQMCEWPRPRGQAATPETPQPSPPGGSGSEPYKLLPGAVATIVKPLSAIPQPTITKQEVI
# [3] = tested on: human insulin promoter factor 1 (IPF-1), His and Xpress-tagged at the N-terminus
# Sequence of human insulin promoter factor 1 (IPF-1), His and Xpress-tagged at the N-terminus (chain, as listed by the source): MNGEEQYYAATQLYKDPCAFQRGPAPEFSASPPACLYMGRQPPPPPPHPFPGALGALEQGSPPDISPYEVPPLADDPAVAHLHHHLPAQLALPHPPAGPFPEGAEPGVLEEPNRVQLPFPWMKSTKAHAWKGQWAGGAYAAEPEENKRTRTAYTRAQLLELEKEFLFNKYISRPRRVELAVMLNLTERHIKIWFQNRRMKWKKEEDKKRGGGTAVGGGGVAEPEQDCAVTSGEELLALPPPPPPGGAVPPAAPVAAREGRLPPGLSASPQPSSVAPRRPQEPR
# Sequence of human hepatocyte nuclear factor 1α (HNF-1α), His and Xpress-tagged at the N-terminus (chain, as listed by the source): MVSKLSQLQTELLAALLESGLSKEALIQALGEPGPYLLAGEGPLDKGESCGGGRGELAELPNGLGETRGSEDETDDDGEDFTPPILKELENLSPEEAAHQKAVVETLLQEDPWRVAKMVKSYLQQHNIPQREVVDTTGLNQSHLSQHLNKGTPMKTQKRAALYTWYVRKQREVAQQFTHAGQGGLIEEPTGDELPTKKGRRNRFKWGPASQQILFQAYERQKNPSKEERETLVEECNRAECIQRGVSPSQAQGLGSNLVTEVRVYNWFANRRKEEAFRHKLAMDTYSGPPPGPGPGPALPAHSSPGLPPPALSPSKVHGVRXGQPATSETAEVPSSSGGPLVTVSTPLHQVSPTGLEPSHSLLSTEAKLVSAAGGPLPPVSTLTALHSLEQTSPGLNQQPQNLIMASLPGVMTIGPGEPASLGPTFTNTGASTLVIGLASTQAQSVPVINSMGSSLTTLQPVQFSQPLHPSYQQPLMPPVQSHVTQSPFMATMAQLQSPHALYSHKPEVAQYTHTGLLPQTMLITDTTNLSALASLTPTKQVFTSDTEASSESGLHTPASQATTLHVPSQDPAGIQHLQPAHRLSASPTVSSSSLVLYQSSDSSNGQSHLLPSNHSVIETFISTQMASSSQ
Substance,"in vitro protein degradation test, Western blotting with anti-HNF-1α antibody [1]","in vitro protein degradation test, Western blotting with anti-HNF-4α antibody [2]","in vitro protein degradation test, Western blotting with anti-IPF-1 antibody [3]","in vitro protein degradation test, Western blotting with anti-Omni/M21 and anti-HNF-1α antibody [1]","in vitro protein degradation test, Western blotting with anti-HNF-4α and anti-Xpress antibody [2]","in vitro protein degradation test, Western blotting with anti-Xpress and anti-IPF-1 antibody [3]"
human m-calpain coexpressed with calpain small subunit 1 in sf-9 insect cells (cell lysate),the degradation of human HNF-1α by human m-calpain was observed,the degradation of human HNF-4α by human m-calpain was observed,the degradation of human IPF-1 by human m-calpain was observed,,,
"rabbit m-calpain, extracted from rabbit muscle (Protease, Calcium-Activated Neutral (calpain), Sigma Chemical Co.)",,,,"the in vitro degradation of HNF-1α by each of human µ-calpain, rabbit m-calpain and rat m-calpain was observed",the degradation of HNF-4α by rabbit m-calpain was observed,"the in vitro degradation of IPF-1 by each of human µ-calpain, rabbit m-calpain and rat m-calpain was observed"

# From US20070004636
